Data reported in patent US20190330271A1 (HANGZHOU WISDOM PANACEA BIOLOGICS, published 2019).

Target: T1, Aβ42 oligomers (UniProt P05067 672-713)
T1 construct: domain: Aβ42; Oligomeric state
Assay: ELISA on coated Aβ42 oligomers, His-tagged polypeptide at 1 µg per well
Experimental: 100 μL of monomers, oligomers or fibers of Aβ42, PrP, amylin, insulin or lysozyme were respectively coated onto a 96-well ELISA microplate at 1 μg/well, BSA was used as a negative control. The plate were then placed at 37° C. for 2 h, blocked with 200 μL/well of 3% BSA at 37° C. for 2 h, and washed 3 times with PBS. 100 μL of histidine-tagged ZR polypeptide solution was added, and the plate was incubated at room temperature for 1 h, and then washed 3 times with PBS containing 0.1% Tween-20. 100 μL of HRP-linked antibody 9E10 which can recognize the histidine tag was added to each well, and the plate was incubated at room temperature for 1 h, and then washed 3 times with PBS containing 0.1% Tween-20. 100 μL of TMB was added to each well, and the plate was placed at 37° C. for 20 min. Then, 50 μL of 1 mmol/L sulfuric acid was added to each well to terminate the reaction, and OD450 values were measured using a microplate reader. The above procedure was repeated for 3 times under the same condition.

T1 sequence (P05067 672-713 limits assumed): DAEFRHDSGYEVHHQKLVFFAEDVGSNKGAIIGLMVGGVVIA

B1: SEQ ID NO: 8, histidine-tagged (peptide)
peptide: SAFNNKR
notes: also called ZR with position 2 substituted with alanine; not shown: histidine tag
B1 showed an OD450 of 0.48.

B2: SEQ ID NO: 10, histidine-tagged (peptide)
peptide: SFFANKR
notes: also called ZR with position 4 substituted with alanine; not shown: histidine tag
For B2, the OD450 was 0.57.
